Test results: PMC7059798, “Phosphoglucomutase Is Not the Target for Galactose Toxicity in Plants” (Frontiers in Plant Science, 2020)

Tests used:
purified protein [1] = substrate: O=P(O)(O)OC[C@H]1O[C@H](OP(=O)(O)O)[C@H](O)[C@@H](O)[C@@H]1O; test: purified protein; format: biochemical, Arabidopsis thaliana; conditions: 50 mM TEAB pH 7.0, 2 mM MgCl2, Glc-1P as substrate, 25°C, catalytic intermediate, Figure 3 legend prints 4.3, varied: cofactor
purified protein [2] = substrate: O=P(O)(O)O[C@H]1O[C@H](CO)[C@@H](O)[C@H](O)[C@H]1O; test: purified protein; format: biochemical, Arabidopsis thaliana; conditions: 50 mM TEAB pH 7.0, 2 mM MgCl2, 10 µM Glc-1,6bP, 25°C

B1: PGM3 (Arabidopsis thaliana) (protein)
chain: MVFKVSTVSTSPIDGQKPGTSGLRKKVKVFKQPNYLENFVQATFNALTAEKVKGATLVVSGDGRYYSKDAVQIIIKMAAANGVRRVWVGKNTLLSTPAVSAVIRERSGADGSKATGAFILTASHNPGGPTEDFGIKYNMENGGPAPESITDKIYENTKTIKEYPIAQDLPNVDISAVGVTSFEGPEGKFDVEVFDPADDYVKLMKSIFDFEAIRKLLSSPKFTFCYDALHGVAGAYAHRIFVEELGAQESALLNCTPKEDFGGGHPDPNLTYAKELVARMGLGKSDTGGEPPEFGAAADGDADRNMILGKRFFVTPSDSVAIIAANAIGAIPYFSSGLKGVARSMPTSAALDVVAKSLNLKFFEVPTGWKFFGNLMDAGMCSVCGEESFGTGSDHIREKDGIWAVLAWMSILAHKNKGNIDGNAKLVSVEDIVRQHWATYGRHYYTRYDYENVDAGKAKELMEHLVKLQSSIPEVNKIVKGIRSDVASVASADEFEYKDPVDGSISKHQGIRYLFEDGSRLVFRLSGTGSEGATIRLYIEQYEKDASKTGRESQEALSPLVDLALKLSKMEEFTGRSAPTVIT
notes: forward primer encodes (tag)HHHHHG-MVFKVSTVS
B1 gave a Km (purified protein [1]) of 4.38 µM and a Km (purified protein [2]) of 90 µM.
